Reference: paper PMC4335501

Target: HAdV-52 short fiber knob (human adenovirus type 52 (HAdV-52))
Experiment: SPR; 52SFK captured by its His-tag on a Ni-NTA chip (700 RU); fetuin or asialofetuin type II as analytes, two-fold series 125 to 1 μM; 25°C; HBS-EP+; Biacore T100

B1: sialylated fetuin glycoprotein (natural protein)
chain: IPLDPVAGYKEPACDDPDTEQAALAAVDYINKHLPRGYKHTLNQIDSVKVWPRRPTGEVYDIEIDTLETTCHVLDPTPLANCSVRQQTQHAVEGDCDIHVLKQDGQFSVLFTKCDSSPDSAEDVRKLCPDCPLLAPLNDSRVVHAVEVALATFNAESNGSYLQLVEISRAQFVPLPVSVSVEFAVAATDCIAKEVVDPTKCNLLAEKQYGFCKGSVIQKALGGEDVRVTCTLFQTQPVIPQPQPDGAEAEAPSAVPDAAGPTPSAAGPPVASVVVGPSVVAVPLPLHRAHYDLRHTFSGVASVESSSGEAFHVGKTPIVGQPSIPGGPVRLCPGRIRYFKI
modifications: sialylated glycans
Kd: 37 µM
